From patent publication US20220073631A1 (QYUNS THERAPEUTICS, published 2022)

Experiments:
[1] = molecular target: IL-4Rα on human cells (HEK Blue IL-4/IL-13, A549, TF-1, HFL-1, PBMCs) (human, UniProt P24394 26-825); assay: cell-based or functional assay
hIL-4Rα-Mu244 = molecular target: T1, hIL-4Rα-Mu244 (human, UniProt P24394 26-232); assay: SPR, Biacore T200, by the methods of Example 2
T1 construct: Printed positions fit the mature protein; also called S70Q/A71L/D72R; not shown: C-terminal his-tag
T1 chain: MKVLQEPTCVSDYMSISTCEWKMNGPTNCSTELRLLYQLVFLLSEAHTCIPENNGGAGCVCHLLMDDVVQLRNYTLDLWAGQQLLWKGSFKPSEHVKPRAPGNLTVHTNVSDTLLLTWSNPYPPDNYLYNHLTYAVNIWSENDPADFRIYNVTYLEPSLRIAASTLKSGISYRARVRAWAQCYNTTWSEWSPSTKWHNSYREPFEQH

hIL-4Rα-Mu245 = molecular target: T2, hIL-4Rα-Mu245 (human, UniProt P24394 26-232); assay: SPR, Biacore T200, by the methods of Example 2
T2 construct: Printed positions fit the mature protein; also called A71L/D72R/N73A; not shown: C-terminal his-tag
T2 chain: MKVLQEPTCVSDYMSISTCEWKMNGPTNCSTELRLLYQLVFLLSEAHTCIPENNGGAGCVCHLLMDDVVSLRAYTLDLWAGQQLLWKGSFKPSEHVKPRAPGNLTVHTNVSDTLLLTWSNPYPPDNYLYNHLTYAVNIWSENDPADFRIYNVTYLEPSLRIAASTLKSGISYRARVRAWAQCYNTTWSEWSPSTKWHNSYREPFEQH

hIL-4Rα-Mu241 = molecular target: T3, hIL-4Rα-Mu241 (human, UniProt P24394 26-232); assay: SPR, Biacore T200, by the methods of Example 2
T3 construct: Printed positions fit the mature protein; also called D67A/V68R/V69F; not shown: C-terminal his-tag
T3 chain: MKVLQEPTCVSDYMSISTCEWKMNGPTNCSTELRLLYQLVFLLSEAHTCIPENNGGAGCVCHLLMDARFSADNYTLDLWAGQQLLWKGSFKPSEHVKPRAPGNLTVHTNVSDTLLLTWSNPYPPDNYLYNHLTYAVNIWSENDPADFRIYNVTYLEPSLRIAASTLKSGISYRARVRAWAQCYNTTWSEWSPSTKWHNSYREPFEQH
Description: (§1) The protein A was chemically coupled to a CM5 chip, and an appropriate amount of the antibody was immobilized by a capture method such that the Rmax was less than 50 RU and the flow rate for the capture was 10 μl/min. The antigen was subject to gradient dilution, and the flow rate in the instrument was switched to 30 μl/min. The antigen was flowed through the reference channel and the channel with the immobilized antibody sequentially in an ascending order of concentration, and the running buffer was flowed through as a negative control. After each binding and dissociation was complete, the chip was regenerated with glycine, pH 1.5. Fitting was performed with the build-in software in the instrument according to a 1:1 binding model. The binding rate constant kₐ, the dissociation rate constant kd, and the equilibrium dissociation constant KD values of the antibody were calculated. Dupilumab was obtained by purchasing a commercially available medicine.
(§2) To further narrow down the key amino acids that PD2-31 binds to, multiple mutants of hIL-4Rα were designed in Loop 2 (V40FLLSEA46) and Loop 3 (M65[…]73) (Table 2). The wild-type hIL-4Rα (hIL-4Rα-ECD) and hIL-4Rα mutants were prepared using standard techniques. Briefly, the expression plasmids containing the extracellular domain of wild-type hIL-4Rα and different mutated hIL-4Rα were constructed and transfected into HEK 293F cells. After expression, the extracellular domain of wild-type hIL-4Rα and hIL-4Rα mutants with C-terminus his-tag were purified by Nickel chromatography. Purified proteins of wild-type hIL-4Rα and hIL-4Rα mutants were analyzed for interaction with PD2-31 and Dupilumab. The interaction was studied by Biacore T200, according to the methods in Example 2.

hIL-4Rα-Mu242 = molecular target: T4, hIL-4Rα-Mu242 (human, UniProt P24394 26-232); assay: SPR, Biacore T200, by the methods of Example 2
T4 construct: Printed positions fit the mature protein; also called V68R/V69F/S70Q; not shown: C-terminal his-tag
T4 chain: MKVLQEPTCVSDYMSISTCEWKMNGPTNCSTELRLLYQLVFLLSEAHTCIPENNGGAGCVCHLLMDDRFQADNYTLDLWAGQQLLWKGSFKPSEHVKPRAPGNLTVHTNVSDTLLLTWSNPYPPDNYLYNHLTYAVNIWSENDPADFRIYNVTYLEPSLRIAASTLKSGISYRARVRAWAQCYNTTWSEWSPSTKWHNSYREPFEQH
Description: as §1, §2

hIL-4Rα-Mu243 = molecular target: T5, hIL-4Rα-Mu243 (human, UniProt P24394 26-232); assay: SPR, Biacore T200, by the methods of Example 2
T5 construct: Printed positions fit the mature protein; also called V69F/S70Q/A71L; not shown: C-terminal his-tag
T5 chain: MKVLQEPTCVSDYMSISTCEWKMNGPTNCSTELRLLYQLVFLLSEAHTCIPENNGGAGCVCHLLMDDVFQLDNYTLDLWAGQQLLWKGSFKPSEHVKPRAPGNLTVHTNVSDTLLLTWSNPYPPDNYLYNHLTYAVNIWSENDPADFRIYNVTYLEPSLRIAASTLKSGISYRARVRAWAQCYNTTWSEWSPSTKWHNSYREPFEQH
Description: as §1, §2

hIL-4Rα-Mu453 = molecular target: T6, hIL-4Rα-Mu453 (human, UniProt P24394 26-232); assay: SPR, Biacore T200, by the methods of Example 2
T6 construct: Printed positions fit the mature protein; also called D66A/D67A; not shown: C-terminal his-tag
Description: as §1, §2

hIL-4Rα-Mu239 = molecular target: T7, hIL-4Rα-Mu239 (human, UniProt P24394 26-232); assay: SPR, Biacore T200, by the methods of Example 2
T7 construct: Printed positions fit the mature protein; also called M65I/D66A/D67A; not shown: C-terminal his-tag
T7 chain: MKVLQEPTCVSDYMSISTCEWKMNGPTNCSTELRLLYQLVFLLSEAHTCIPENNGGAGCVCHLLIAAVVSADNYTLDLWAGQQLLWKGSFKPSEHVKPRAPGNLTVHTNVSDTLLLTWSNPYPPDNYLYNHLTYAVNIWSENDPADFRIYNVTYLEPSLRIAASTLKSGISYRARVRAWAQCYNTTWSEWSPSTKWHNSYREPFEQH
Description: as §1, §2

hIL-4Rα-Mu240 = molecular target: T8, hIL-4Rα-Mu240 (human, UniProt P24394 26-232); assay: SPR, Biacore T200, by the methods of Example 2
T8 construct: Printed positions fit the mature protein; also called D66A/D67A/V68R; not shown: C-terminal his-tag
T8 chain: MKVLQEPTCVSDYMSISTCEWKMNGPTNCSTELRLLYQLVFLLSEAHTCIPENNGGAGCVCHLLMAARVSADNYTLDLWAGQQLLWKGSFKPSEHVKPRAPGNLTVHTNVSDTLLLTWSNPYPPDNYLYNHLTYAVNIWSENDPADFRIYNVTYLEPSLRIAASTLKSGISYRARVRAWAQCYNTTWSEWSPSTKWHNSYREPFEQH
Description: as §1, §2

[2] = molecular target: T9, human IL-4Rα (Shanghai Novoprotein Technology Co., Ltd) (human, UniProt P24394 26-232); assay: SPR, Biacore T200, antibody captured on protein A, antigen as analyte, 25 C, 1:1 model
T9 construct: Bought protein; also called hIL-4Rα; human interleukin-4 receptor alpha
Description: as §1

B1: Dupilumab (antibody, V domains shown)
VH: EVQLVESGGGLEQPGGSLRLSCAGSGFTFRDYAMTWVRQAPGKGLEWVSSISGSGGNTYYADSVKGRFTISRDNSKNTLYLQMNSLRAEDTAVYYCAKDRLSITIRPRYYGLDVWGQGTTVTVSS
VL: DIVMTQSPLSLPVTPGEPASISCRSSQSLLYSIGYNYLDWYLQKSGQSPQLLIYLGSNRASGVPDRFSGSGSGTDFTLKISRVEAEDVGFYYCMQALQTPYTFGQGTKLEIKR
IC50, IL-4-induced CCL-11 release activity in HFL-1 cells (FIG. 7(A)) [1]: 0.0968 µg/mL | IC50, IL-4-induced CCL-11 release activity in HFL-1 cells (FIG. 7(B)) [1]: 0.0334 µg/mL | IC50, IL-4-induced CCL-17 release activity in A549 cells (FIG. 5(A)) [1]: 0.0449 µg/mL | IC50, IL-4-induced CCL-17 release activity in A549 cells (FIG. 5(B)) [1]: 0.0449 µg/mL | IC50, IL-4-induced CCL-17 release activity in PBMCs (FIG. 9(A)) [1]: 0.029 µg/mL | IC50, IL-4-induced CCL-17 release activity in PBMCs (FIG. 9(B)) [1]: 0.0436 µg/mL | IC50, IL-4-induced STAT6 phosphorylation activity in HEK Blue IL-4/IL-13 cells (FIG. 4(A)) [1]: 0.00439 µg/mL | IC50, IL-4-induced STAT6 phosphorylation activity in HEK Blue IL-4/IL-13 cells (FIG. 4(B)) [1]: 0.00454 µg/mL | IC50, IL-4-induced proliferation activity of TF-1 cells (FIG. 6(A)) [1]: 0.0219 µg/mL | IC50, IL-4-induced proliferation activity of TF-1 cells (FIG. 6(B)) [1]: 0.0188 µg/mL | IC50, IL-13-induced CCL-11 release activity in HFL-1 cells (FIG. 7(C)) [1]: 0.0475 µg/mL | IC50, IL-13-induced CCL-11 release activity in HFL-1 cells (FIG. 7(D)) [1]: 0.0869 µg/mL | IC50, IL-13-induced CCL-17 release activity in A549 cells (FIG. 5(C)) [1]: 0.0373 µg/mL | IC50, IL-13-induced CCL-17 release activity in A549 cells (FIG. 5(D)) [1]: 0.0465 µg/mL | IC50, IL-13-induced CCL-17 release activity in PBMCs (FIG. 9(C)) [1]: 0.0984 µg/mL | IC50, IL-13-induced CCL-17 release activity in PBMCs (FIG. 9(D)) [1]: 0.082 µg/mL | IC50, IL-13-induced STAT6 phosphorylation activity in HEK Blue IL-4/IL-13 cells (FIG. 4(C)) [1]: 0.0128 µg/mL | IC50, IL-13-induced STAT6 phosphorylation activity in HEK Blue IL-4/IL-13 cells (FIG. 4(D)) [1]: 0.0127 µg/mL | IC50, IL-13-induced proliferation activity of TF-1 cells (FIG. 6(C)) [1]: 0.0205 µg/mL | IC50, IL-13-induced proliferation activity of TF-1 cells (FIG. 6(D)) [1]: 0.0149 µg/mL | Kd (hIL-4Rα-Mu244): > 10 nM | Kd (hIL-4Rα-Mu245): > 10 nM | Kd (hIL-4Rα-Mu241): 41.2 nM | koff (hIL-4Rα-Mu241): 0.00444 s⁻¹ | kon (hIL-4Rα-Mu241): 108000 M⁻¹ s⁻¹ | Kd (hIL-4Rα-Mu242): 27.3 nM | koff (hIL-4Rα-Mu242): 0.00357 s⁻¹ | kon (hIL-4Rα-Mu242): 131000 M⁻¹ s⁻¹ | Kd (hIL-4Rα-Mu243): 0.0361 nM | koff (hIL-4Rα-Mu243): 3.41e-05 s⁻¹ | kon (hIL-4Rα-Mu243): 945000 M⁻¹ s⁻¹ | Kd (hIL-4Rα-Mu453): 0.196 nM | koff (hIL-4Rα-Mu453): 3.78e-05 s⁻¹ | kon (hIL-4Rα-Mu453): 193000 M⁻¹ s⁻¹ | Kd (hIL-4Rα-Mu239): 0.223 nM | koff (hIL-4Rα-Mu239): 5.63e-05 s⁻¹ | kon (hIL-4Rα-Mu239): 253000 M⁻¹ s⁻¹ | Kd (hIL-4Rα-Mu240): 4.07 nM | koff (hIL-4Rα-Mu240): 0.000421 s⁻¹ | kon (hIL-4Rα-Mu240): 103000 M⁻¹ s⁻¹

B2: QX005N (HZD82-12) (antibody, V domains shown)
VH: EVQLVESGGGLVQPGGSLRLSCAASGFSLNSNAVGWVRQAPGKGLEYIGFINFSGITYYANWAKGRFTISRDNSKNTLYLQMNSLRAEDTAVYYCARGSAGSFDLWGQGTLVTVSS
VL: DIQMTQSPSSLSASVGDRVTITCQASESVYKNNYLAWYQQKPGKAPKLLIYRASNLASGVPSRFSGSGSGTDFTLTISSLQPEDFATYYCQGGYSSGMYPFGQGTKVEIK
notes: Humanized from rabbit clone #82, expressed as a full antibody in ExpiCHO-S cells (heavy chain 48.3 kDa, light chain 23.6 kDa)
IC50, IL-4-induced CCL-11 release activity in HFL-1 cells (FIG. 7(B)) [1]: 0.0643 µg/mL | IC50, IL-4-induced CCL-17 release activity in A549 cells (FIG. 5(B)) [1]: 0.0461 µg/mL | IC50, IL-4-induced CCL-17 release activity in PBMCs (FIG. 9(B)) [1]: 0.0678 µg/mL | IC50, IL-4-induced STAT6 phosphorylation activity in HEK Blue IL-4/IL-13 cells (FIG. 4(B)) [1]: 0.0065 µg/mL | IC50, IL-4-induced proliferation activity of TF-1 cells (FIG. 6(B)) [1]: 0.0193 µg/mL | IC50, IL-13-induced CCL-11 release activity in HFL-1 cells (FIG. 7(D)) [1]: 0.0895 µg/mL | IC50, IL-13-induced CCL-17 release activity in A549 cells (FIG. 5(D)) [1]: 0.0495 µg/mL | IC50, IL-13-induced CCL-17 release activity in PBMCs (FIG. 9(D)) [1]: 0.117 µg/mL | IC50, IL-13-induced STAT6 phosphorylation activity in HEK Blue IL-4/IL-13 cells (FIG. 4(D)) [1]: 0.0213 µg/mL | IC50, IL-13-induced proliferation activity of TF-1 cells (FIG. 6(D)) [1]: 0.0161 µg/mL | Kd [2]: 0.207 nM | koff [2]: 9.9e-05 s⁻¹ | kon [2]: 481000 M⁻¹ s⁻¹
